Laboratory results as given in patent US20220153832A1 (PIONYR IMMUNOTHERAPEUTICS, published 2022).
Substitutions are numbered along the chain they refer to.

T1: N-terminally polyhistidine tagged human MARCO ECD (147-520), recombinant (human, UniProt Q9UEW3 147-520)
T1 construct: also called PI-RG-3000; recombinant human MARCO; not shown: N-terminal polyhistidine tag
T1 sequence: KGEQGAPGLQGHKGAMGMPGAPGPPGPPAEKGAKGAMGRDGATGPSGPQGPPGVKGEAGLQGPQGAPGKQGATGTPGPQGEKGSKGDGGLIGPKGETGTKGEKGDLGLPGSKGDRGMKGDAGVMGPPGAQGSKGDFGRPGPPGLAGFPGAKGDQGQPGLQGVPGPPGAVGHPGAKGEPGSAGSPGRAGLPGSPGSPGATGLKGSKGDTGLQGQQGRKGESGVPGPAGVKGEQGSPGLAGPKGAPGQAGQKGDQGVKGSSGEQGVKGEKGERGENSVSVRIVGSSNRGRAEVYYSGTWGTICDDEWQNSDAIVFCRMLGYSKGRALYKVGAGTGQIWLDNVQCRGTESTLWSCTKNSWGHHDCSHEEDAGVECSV

T2: Cynomolgus MARCO, full length, on cells (cynomolgus, UniProt A0A2K5X0Z2 1-519)
T2 construct: whole, on cells; also called cyno MARCO; CyMARCO
T2 sequence: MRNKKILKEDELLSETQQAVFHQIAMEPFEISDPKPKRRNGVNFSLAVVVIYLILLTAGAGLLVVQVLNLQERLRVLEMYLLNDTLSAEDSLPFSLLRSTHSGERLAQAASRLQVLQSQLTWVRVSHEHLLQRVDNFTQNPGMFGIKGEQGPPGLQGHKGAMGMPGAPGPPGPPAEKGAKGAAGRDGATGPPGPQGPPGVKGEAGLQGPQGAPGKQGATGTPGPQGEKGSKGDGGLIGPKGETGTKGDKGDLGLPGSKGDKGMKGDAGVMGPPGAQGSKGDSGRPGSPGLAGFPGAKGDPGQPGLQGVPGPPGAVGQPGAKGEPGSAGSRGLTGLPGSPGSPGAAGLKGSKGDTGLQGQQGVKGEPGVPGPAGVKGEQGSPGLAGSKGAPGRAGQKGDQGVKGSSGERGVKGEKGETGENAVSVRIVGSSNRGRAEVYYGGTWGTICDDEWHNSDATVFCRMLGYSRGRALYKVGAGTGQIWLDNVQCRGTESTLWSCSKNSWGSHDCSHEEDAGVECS

T3: Human Macrophage Receptor with Collagenous Structure (MARCO), full length, on cells (human, UniProt Q9UEW3 1-520)
T3 construct: the cell type is named under assay; also called huMARCO; HuMARCO
T3 sequence: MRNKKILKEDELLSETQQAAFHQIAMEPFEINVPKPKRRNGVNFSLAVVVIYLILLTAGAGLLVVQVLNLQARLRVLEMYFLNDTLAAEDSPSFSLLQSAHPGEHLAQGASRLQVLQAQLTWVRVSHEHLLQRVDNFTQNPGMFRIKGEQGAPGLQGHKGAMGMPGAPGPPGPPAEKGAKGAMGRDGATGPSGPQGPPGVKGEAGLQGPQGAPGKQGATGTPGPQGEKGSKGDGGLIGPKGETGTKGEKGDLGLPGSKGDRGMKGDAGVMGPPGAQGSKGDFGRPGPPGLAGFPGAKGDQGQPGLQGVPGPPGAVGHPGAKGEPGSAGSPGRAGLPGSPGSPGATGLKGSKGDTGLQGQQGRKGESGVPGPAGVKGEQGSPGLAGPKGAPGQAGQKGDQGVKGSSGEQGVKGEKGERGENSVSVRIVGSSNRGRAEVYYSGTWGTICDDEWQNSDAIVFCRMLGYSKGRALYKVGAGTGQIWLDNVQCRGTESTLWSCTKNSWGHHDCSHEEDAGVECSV

T4: chimera Mouse MARCO CLD-human MARCO SRCR, on cells
T4 chain: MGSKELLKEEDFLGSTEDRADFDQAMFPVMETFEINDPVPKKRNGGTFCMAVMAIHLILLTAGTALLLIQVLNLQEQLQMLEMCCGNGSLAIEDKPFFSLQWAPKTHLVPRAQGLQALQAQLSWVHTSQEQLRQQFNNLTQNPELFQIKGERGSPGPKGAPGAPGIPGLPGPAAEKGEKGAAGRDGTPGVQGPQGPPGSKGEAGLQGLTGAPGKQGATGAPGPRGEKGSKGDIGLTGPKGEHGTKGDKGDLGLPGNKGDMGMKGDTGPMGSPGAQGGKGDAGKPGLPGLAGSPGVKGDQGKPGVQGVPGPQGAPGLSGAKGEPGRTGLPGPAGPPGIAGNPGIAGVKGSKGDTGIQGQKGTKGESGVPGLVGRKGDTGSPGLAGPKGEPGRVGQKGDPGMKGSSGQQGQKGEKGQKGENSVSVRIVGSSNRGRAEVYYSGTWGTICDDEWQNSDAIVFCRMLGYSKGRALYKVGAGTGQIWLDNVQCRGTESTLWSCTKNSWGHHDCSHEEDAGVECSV

B1: PI-HX-3011 (antibody, rat IgG2a)
heavy: QIQLVQSGPELKKPGESVKISCKASGYTFTDYAVNWVKQAPGNGLKWMGWINTQTGKPTYADDFKQRFVFSLETSASTSFLQINNLNIEDTATYFCTRDSYYYSSSLDYWGQGVMVTVSSAETTAPSVYPLAPGTALKSNSMVTLGCLVKGYFPEPVTVTWNSGALSSGVHTFPAVLQSGLYTLTSSVTVPSSTWSSQAVTCNVAHPASSTKVDKKIVPRECNPCGCTGSEVSSVFIFPPKTKDVLTITLTPKVTCVVVDISQNDPEVRFSWFIDDVEVHTAQTHAPEKQSNSTLRSVSELPIVHRDWLNGKTFKCKVNSGAFPAPIEKSISKPEGTPRGPQVYTMAPPKEEMTQSQVSITCMVKGFYPPDIYTEWKMNGQPQENYKNTPPTMDTDGSYFLYSKLNVKKETWQQGNTFTCSVLHEGLHNHHTEKSLSHSP
light: DIQMTQSPASLSASLGETVSIECLASAGISNDLAWYQQKSGKSPQLLIYAASRLQDGVPSRFSGSGSGTRFSLKISDMQPEDEADYFCQQSYKYPWTFGGGTKLELKRADAAPTVSIFPPSTEQLATGGASVVCLMNNFYPRDISVKWKIDGTERRDGVLDSVTDQDSKDSTYSMSSTLSLTKADYESHNLYTCEVVHKTSSSPVVKSFNRNEC
notes: Parental rat hybridoma, rat IgG2a
B2: PI-3030-AB (antibody, human IgG1, kappa)
heavy: not shown
light: DIQMTQSPASLSASLGETVSIECLASAGISNDLAWYQQKSGKSPQLLIYAASRLQDGVPSRFSGSGSGTRFSLKISDMQPEDEADYFCQQSYKYPWTFGGGTKLELKRTVAAPSVFIFPPSDEQLKSGTASVVCLLNNFYPREAKVQWKVDNALQSGNSQESVTEQDSKDSTYSLSSTLTLSKADYEKHKVYACEVTHQGLSSPVTKSFNRGEC
notes: Human IgG1 chimera of PI-HX-3011; also called HX3011-h1 Chimera hIgG1
B3: PI-3031-AB (antibody, human IgG1, kappa)
heavy: not shown
light: B2 light with A25T, A27E, A50D, Q55E, F71Y, D77G, P80T, W96L, G100S, L106I
notes: Human IgG1 chimera of PI-HX-3043; also called HX3043-h1 Chimera hIgG1

What was measured:
[1] = target: T1, N-terminally polyhistidine tagged human …; assay: ELISA on recombinant human MARCO, 0 mM EDTA
Experimental: (§1) After the plates were incubated at room temperature for 1 hour or 4° C. overnight, the plates were wash 3 times with ELISA wash buffer (PBS/0.05% TWEEN-20), then hybridoma supernatant (1:5 dilution) or purified antibody (1 ug) was diluted in DPBS/Ca2+/2% FBS, DPBS without Ca2+/2 mM EDTA/2% FBS, DPBS without Ca2+/10 mM EDTA/2% FBS, and DPBS without Ca2+/50 mM EDTA/2% FBS. Plates again were incubated at room temperature for 1 hour.

[2] = target: T1, N-terminally polyhistidine tagged human …; assay: ELISA on recombinant human MARCO, 50 mM EDTA
Experimental: as §1

[3] = target: T2, Cynomolgus MARCO, full length, on cells; assay: flow cytometry, 293T (CyMARCO)
Experimental: (§2) Supernatants were removed and cell pellets were resuspended in Ca²⁺+ and Mg²⁺+ Dulbecco's phosphate-buffered saline (D-PBS) at 1×10⁶ cells/ml. 100,000 cells/well were plated onto U-bottom 96-well plates for staining and all centrifugation steps were performed at 1500 rpm at 4° C. for 5 min and samples were kept protected from light throughout the protocol. Cells were pelleted and resuspended in 100 μl of Zombie NIR viability dye (BioLegend) prepared by diluting Zombie NIR dimethyl sulfoxide (DMSO) stock 1000-fold in D-PBS. Cells were stained by incubation for 10 min at room temperature (RT) in the dark, followed by quenching the staining reaction with the addition of 100 μl of Staining Medium (D-PBS containing 2% FBS and 2 mM ethylenediaminetetraacetic acid (EDTA). Cells were pelleted and resuspended in 100 μl of the different antibodies and hybridomas supernatants needed for screening and corresponding isotype controls in freshly prepared staining medium, such as PI-M014 and mIgG2b isotype. All mAbs were tested at the final top concentration of 100 nM (15 μg/ml) followed by an 8-point three-fold serial dilution, including 0 mg/ml control. Staining was carried out for 1 hour (hr) on ice, followed by 2 washes in Staining Medium. Cells were then pelleted and resuspended in 100 μl of allophycocyanin (APC)-conjugated goat anti-mouse IgG (Fc-specific) secondary antibody, prepared by 500-fold dilution of the antibody stocks in Staining Medium, and incubated for 30 min on ice. […] Flow cytometry data were analyzed using FlowJo software (version 10.6.1) and data were processed and further analyzed in Microsoft Excel and GraphPad Prism software (version 8). Half-maximal effective concentrations (EC₅₀) were calculated based on geometric mean fluorescence intensities (gMFI). In case when the plates were not able to be analyzed on the cytometer, cells were pelleted after the washes and fixed in 100 μl of 2% paraformaldehyde (PFA), prepared by diluting the 16% (w/v) stock (Thermo Fisher) in DPBS, for 15 min at RT. […]

[4] = target: T3, Human Macrophage Receptor with …; assay: flow cytometry, 293T (HuMARCO)
Experimental: Supernatants were removed and cell pellets were resuspended in Ca²⁺+ and Mg²⁺+ Dulbecco's phosphate-buffered saline (D-PBS) at 1×10⁶ cells/ml. 100,000 cells/well were plated onto U-bottom 96-well plates for staining and all centrifugation steps were performed at 1500 rpm at 4° C. for 5 min and samples were kept protected from light throughout the protocol. Cells were pelleted and resuspended in 100 μl of Zombie NIR viability dye (BioLegend) prepared by diluting Zombie NIR dimethyl sulfoxide (DMSO) stock 1000-fold in D-PBS. Cells were stained by incubation for 10 min at room temperature (RT) in the dark, followed by quenching the staining reaction with the addition of 100 μl of Staining Medium (D-PBS containing 2% FBS and 2 mM ethylenediaminetetraacetic acid (EDTA). Cells were pelleted and resuspended in 100 μl of the different antibodies and hybridomas supernatants needed for screening and corresponding isotype controls in freshly prepared staining medium, such as PI-M014 and mIgG2b isotype. All mAbs were tested at the final top concentration of 100 nM (15 μg/ml) followed by an 8-point three-fold serial dilution, including 0 mg/ml control. Staining was carried out for 1 hour (hr) on ice, followed by 2 washes in Staining Medium. Cells were then pelleted and resuspended in 100 μl of allophycocyanin (APC)-conjugated goat anti-mouse IgG (Fc-specific) secondary antibody, prepared by 500-fold dilution of the antibody stocks in Staining Medium, and incubated for 30 min on ice. Plates were then washed two times with Staining Medium, followed by resuspension in 150 μl of the same buffer for acquisition on the flow cytometer (Attune NxT, Life Technologies). Flow cytometry data were analyzed using FlowJo software (version 10.6.1) and data were processed and further analyzed in Microsoft Excel and GraphPad Prism software (version 8). Half-maximal effective concentrations (EC₅₀) were calculated based on geometric mean fluorescence intensities (gMFI). In case when the plates were not able to be analyzed on the cytometer, cells were pelleted after the washes and fixed in 100 μl of 2% paraformaldehyde (PFA), prepared by diluting the 16% (w/v) stock (Thermo Fisher) in DPBS, for 15 min at RT. Cells were then pelleted and the fixative was removed, followed by resuspension in 150 μl of Staining Medium and stored at 4° C. until acquisition on the flow cytometer.

[5] = target: T1, N-terminally polyhistidine tagged human …; assay: label-free kinetics (ProbeLife Gator), mAb captured, human MARCO
Experimental: (§3) The kinetics assay used either anti-mouse Fc or anti-human Fc probes to capture the anti-MARCO antibodies onto the probe, and then a five-step kinetic protocol was used to measure the affinity of the antibodies to the antigen, including the following steps: baseline, loading, baseline, association, and dissociation. The kinetics buffer (K buffer) provided by ProbeLife was used to establish the baseline for 60 seconds, and then the anti-mFc or anti-hFc probes were loaded with 200 nM of the antibodies for 120s until the capture reached saturation, measurement of the baseline in K buffer was performed for another 60s, followed by the association step using 200 nM antigen (human MARCO, mouse MARCO or cyno MARCO), and the dissociation step performed in K buffer for 5-10 minutes. The assay was done at 37° C. to maximize antibody:antigen dissociation.
Kinetics and epitope binning analysis of the newly generated anti-human MARCO antibodies was performed as described in Example 3.

[6] = target: T1, N-terminally polyhistidine tagged human …; assay: ELISA on recombinant human MARCO, 10 mM EDTA
Experimental: as §1

[7] = target: T1, N-terminally polyhistidine tagged human …; assay: ELISA on recombinant human MARCO, 2 mM EDTA
Experimental: as §1

[8] = target: T4, chimera Mouse MARCO CLD-human MARCO …; assay: flow cytometry, cells overexpressing HuSRCR-mouse CLD chimera
[9] = target: T2, Cynomolgus MARCO, full length, on cells; assay: flow cytometry, cells overexpressing cyno MARCO
[10] = target: T3, Human Macrophage Receptor with …; assay: flow cytometry, cells overexpressing human MARCO
Experimental: as §2

[11] = target: T1, N-terminally polyhistidine tagged human …; assay: KD (nM) Human; method not given
[12] = target: T5, hVar3 (RG3036) (human, UniProt Q9UEW3 147-520); assay: ELISA on hVar3
T5 construct: Human MARCO His-CLD-SRCR with Q452D, Y472S and K473S (already in the entry); also called recombinant human SRCR MARCO hVar3 protein

[13] = target: T1, N-terminally polyhistidine tagged human …; assay: ProbeLife Gator
Experimental: as §3

Binder	ELISA signal (A450) [1]	ELISA signal (A450) [2]	EC50 [3]	EC50 [4]	koff [5]	kon [5]	ELISA signal (A450) [6]	ELISA signal (A450) [7]	EC50 [8]	EC50 [9]	EC50 [10]	Kd [11]	binding result [12]	koff [13]
B1	1.17	0.082	0.094 nM	0.096 nM	0.000914 s⁻¹	401000 M⁻¹ s⁻¹	0.0811	0.0636	–	–	–	–	–	–
B2	–	–	–	–	–	–	–	–	0.17 nM	0.38 nM	0.55 nM	0.44 nM	no binding	0.00351 s⁻¹
B3	–	–	–	–	–	–	–	–	1.07 nM	1.09 nM	1.6 nM	0.6 nM	no binding	0.00281 s⁻¹
